Measured values published in PMC11237882 (2024).

T1: Homer1 EVH1 (Homo sapiens, UniProt Q86YM7)
T1 chain: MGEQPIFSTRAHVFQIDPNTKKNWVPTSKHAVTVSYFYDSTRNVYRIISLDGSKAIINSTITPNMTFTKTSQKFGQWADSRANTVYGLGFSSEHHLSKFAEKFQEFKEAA


Key:
[1] = biological target: ENAH EVH1 (Homo sapiens, UniProt Q8N8S7); test: BLI
[2] = biological target: T1, Homer1 EVH1; test: BLI

Sequence of ENAH EVH1 (Q8N8S7 1-111): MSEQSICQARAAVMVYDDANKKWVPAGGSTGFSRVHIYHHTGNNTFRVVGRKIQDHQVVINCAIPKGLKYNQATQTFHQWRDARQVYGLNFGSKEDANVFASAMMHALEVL

Binder	Kd [1] [µM]	Kd [2] [µM]
PNHLPLPGPPFSFQNVLVVL [KANK4]	> 150	–
ALPHPGAAPWPMAFPYQYPPPAHPYNPHPGFPELGY [DVL3P1A]	–	> 150

Continued, values first:

Kd [1] [µM]	Kd [2] [µM]	Binder
> 150	–	FIAHILPAPPDCFPDKVKAF [FLNC]
> 150	–	GYPYQYPGPPPCFPPAYQDP [DVL1]
> 150	–	RPATGYPLPPQIFNESQYRG [SH3BGRL]
